Changes are numbered by the printed parent chain. Values joined by “and” are separate entries in the source; they are usually repeats but may differ in a detail not shown here. Equal entries are not always repeated.

The target in this test is human epidermal growth factor receptor 2 (HER2) extracellular domain (human, UniProt P04626 23-629). Description: SPR. A general note: In SPR one partner is held on a chip, and binding of the other changes the refractive index at the surface.

B1: Trastuzumab HCDR3 variant ARYLTDADFRLHY (Fab, V domains shown)
VH: EVQLVESGGGLVQPGGSLRLSCAASGFNIKDTYIHWVRQAPGKGLEWVARIYPTNGYTRYADSVKGRFTISADTSKNTAYLQMNSLRAEDTAVYYCARYLTDADFRLHYWGQGTLVTVSS
VL: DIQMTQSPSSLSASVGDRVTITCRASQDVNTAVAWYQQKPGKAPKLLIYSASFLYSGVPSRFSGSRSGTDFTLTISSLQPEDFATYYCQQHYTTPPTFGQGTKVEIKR
What is called Kd is the constant that tells how readily two partners part at equilibrium. On to B1, for which the Kd stood at 75.1 nM and the “log(KD (M))” value was -7.12 log(M).

B2: Trastuzumab HCDR3 variant ATGYGYLLYSDHD (Fab, V domains shown)
VH: EVQLVESGGGLVQPGGSLRLSCAASGFNIKDTYIHWVRQAPGKGLEWVARIYPTNGYTRYADSVKGRFTISADTSKNTAYLQMNSLRAEDTAVYYCATGYGYLLYSDHDWGQGTLVTVSS
VL: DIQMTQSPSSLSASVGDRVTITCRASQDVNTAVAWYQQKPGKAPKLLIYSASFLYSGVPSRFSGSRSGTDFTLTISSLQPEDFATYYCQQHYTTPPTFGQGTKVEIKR
Take B2: binding was put at a Kd of 171 nM and the “log(KD (M))” value is -6.77 log(M).

B3: Trastuzumab HCDR3 variant TRYYGGYGYYFDY (Fab, V domains shown)
VH: B1 VH with A97T, L100Y, T101G, D102G, A103Y, D104G, F105Y, R106Y, L107F, H108D
VL: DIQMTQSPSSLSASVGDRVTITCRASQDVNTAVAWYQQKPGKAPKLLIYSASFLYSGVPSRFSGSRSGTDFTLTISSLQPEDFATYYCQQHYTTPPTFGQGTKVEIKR
In the case of B3, the Kd worked out at 41.6 nM and the “log(KD (M))” value is -7.38 log(M).

B4: Trastuzumab HCDR3 variant SRYYDYNYYFMDY (Fab, V domains shown)
VH: B1 VH with A97S, L100Y, T101D, D102Y, A103N, D104Y, F105Y, R106F, L107M, H108D
VL: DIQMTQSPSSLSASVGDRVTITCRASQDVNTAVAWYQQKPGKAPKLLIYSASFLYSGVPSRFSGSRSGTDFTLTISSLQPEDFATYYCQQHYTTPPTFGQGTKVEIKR
Turning to B4, the dissociation constant Kd turned out to be 141 nM and the “log(KD (M))” value was -6.85 log(M).

B5: Trastuzumab HCDR3 variant ARYYSYGGYYFDY (Fab, V domains shown)
VH: B1 VH with L100Y, T101S, D102Y, A103G, D104G, F105Y, R106Y, L107F, H108D
VL: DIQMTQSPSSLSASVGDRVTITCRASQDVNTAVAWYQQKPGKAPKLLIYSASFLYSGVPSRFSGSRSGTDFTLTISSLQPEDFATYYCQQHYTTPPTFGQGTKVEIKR
For B5, the Kd was determined as 106 nM and the “log(KD (M))” value was -6.98 log(M).

B6: Trastuzumab HCDR3 variant VRYPEVYGYYFDY (Fab, V domains shown)
VH: B1 VH with A97V, L100P, T101E, D102V, A103Y, D104G, F105Y, R106Y, L107F, H108D
VL: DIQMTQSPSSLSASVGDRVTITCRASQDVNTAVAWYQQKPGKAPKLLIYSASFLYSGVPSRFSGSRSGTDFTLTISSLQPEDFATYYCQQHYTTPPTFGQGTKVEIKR
On to B6, for which the Kd came to 36.3 nM and the “log(KD (M))” value is -7.44 log(M).

B7: Trastuzumab HCDR3 variant ARYYSDYSYTFSY (Fab, V domains shown)
VH: B1 VH with L100Y, T101S, A103Y, D104S, F105Y, R106T, L107F, H108S
VL: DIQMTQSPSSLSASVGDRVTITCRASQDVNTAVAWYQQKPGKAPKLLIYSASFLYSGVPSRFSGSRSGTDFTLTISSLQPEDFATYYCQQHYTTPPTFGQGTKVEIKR
For B7, the Kd turned out to be 112 nM and the “log(KD (M))” value is -6.95 log(M).

B8: Trastuzumab HCDR3 variant ASYYAPGSYGFDP (Fab, V domains shown)
VH: B2 VH with T98S, G99Y, G101A, Y102P, L103G, L104S, S106G, D107F, H108D, D109P
VL: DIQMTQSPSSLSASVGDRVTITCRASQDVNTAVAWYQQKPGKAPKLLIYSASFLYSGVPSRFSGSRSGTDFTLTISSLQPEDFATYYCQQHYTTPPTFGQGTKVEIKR
B8: the affinity, expressed as Kd, was 135 nM and the “log(KD (M))” value was -6.87 log(M).

B9: Trastuzumab HCDR3 variant AVYGPYGGFSYDS (Fab, V domains shown)
VH: B1 VH with R98V, L100G, T101P, D102Y, A103G, D104G, R106S, L107Y, H108D, Y109S
VL: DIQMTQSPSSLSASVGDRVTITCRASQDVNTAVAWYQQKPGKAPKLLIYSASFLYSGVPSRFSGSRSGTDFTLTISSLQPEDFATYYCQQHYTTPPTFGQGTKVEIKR
As for B9, the Kd came out at 70.7 nM and the “log(KD (M))” value is -7.15 log(M).

B10: Trastuzumab HCDR3 variant SRYGRGVYYYFDY (Fab, V domains shown)
VH: B1 VH with A97S, L100G, T101R, D102G, A103V, D104Y, F105Y, R106Y, L107F, H108D
VL: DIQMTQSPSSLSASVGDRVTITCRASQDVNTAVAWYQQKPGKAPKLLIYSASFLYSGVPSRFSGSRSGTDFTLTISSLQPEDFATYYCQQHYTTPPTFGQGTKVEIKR
With B10, binding was characterised by a dissociation constant (Kd) of 79.7 nM and the “log(KD (M))” value was -7.1 log(M).

B11: Trastuzumab HCDR3 variant ARYPGGGIYDFDP (Fab, V domains shown)
VH: B1 VH with L100P, T101G, D102G, A103G, D104I, F105Y, R106D, L107F, H108D, Y109P
VL: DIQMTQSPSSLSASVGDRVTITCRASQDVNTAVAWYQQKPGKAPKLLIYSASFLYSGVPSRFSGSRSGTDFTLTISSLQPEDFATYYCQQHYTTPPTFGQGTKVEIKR
In the case of B11, the Kd is 39.9 nM and the “log(KD (M))” value was -7.4 log(M).

B12: Trastuzumab HCDR3 variant ATSGSVDRYDYVY (Fab, V domains shown)
VH: B2 VH with G99S, Y100G, G101S, Y102V, L103D, L104R, S106D, D107Y, H108V, D109Y
VL: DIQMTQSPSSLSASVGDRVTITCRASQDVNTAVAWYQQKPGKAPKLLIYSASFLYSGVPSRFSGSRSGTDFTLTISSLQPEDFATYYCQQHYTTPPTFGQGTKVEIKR
Consider B12, for which the Kd was found to be 155 nM and the “log(KD (M))” value was -6.81 log(M).

B13: Trastuzumab HCDR3 variant TRYYGDGYYDFDY (Fab, V domains shown)
VH: B1 VH with A97T, L100Y, T101G, A103G, D104Y, F105Y, R106D, L107F, H108D
VL: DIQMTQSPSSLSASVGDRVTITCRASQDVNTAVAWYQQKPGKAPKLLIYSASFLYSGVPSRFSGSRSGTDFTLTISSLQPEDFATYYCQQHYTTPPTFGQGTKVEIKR
For the molecule B13, the Kd was 29.2 nM and the “log(KD (M))” value was -7.53 log(M).

B14: Trastuzumab HCDR3 variant SYPDFGYYVYFAY (Fab, V domains shown)
VH: EVQLVESGGGLVQPGGSLRLSCAASGFNIKDTYIHWVRQAPGKGLEWVARIYPTNGYTRYADSVKGRFTISADTSKNTAYLQMNSLRAEDTAVYYCSYPDFGYYVYFAYWGQGTLVTVSS
VL: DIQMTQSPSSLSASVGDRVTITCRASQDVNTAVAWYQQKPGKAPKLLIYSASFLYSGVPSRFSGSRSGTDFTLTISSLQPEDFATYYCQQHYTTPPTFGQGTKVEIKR
Take B14: binding was put at a Kd of 36.8 nM and the “log(KD (M))” value is -7.43 log(M).

B15: Trastuzumab HCDR3 variant TRYRGAHGYYFDY (Fab, V domains shown)
VH: B1 VH with A97T, L100R, T101G, D102A, A103H, D104G, F105Y, R106Y, L107F, H108D
VL: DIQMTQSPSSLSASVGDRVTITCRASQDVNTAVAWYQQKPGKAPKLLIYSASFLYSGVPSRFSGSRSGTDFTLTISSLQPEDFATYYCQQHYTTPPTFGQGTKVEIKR
As to B15, the Kd was 35.5 nM and the “log(KD (M))” value was -7.45 log(M).

B16: Trastuzumab HCDR3 variant ARYYYDYGYYFDV (Fab, V domains shown)
VH: B1 VH with L100Y, T101Y, A103Y, D104G, F105Y, R106Y, L107F, H108D, Y109V
VL: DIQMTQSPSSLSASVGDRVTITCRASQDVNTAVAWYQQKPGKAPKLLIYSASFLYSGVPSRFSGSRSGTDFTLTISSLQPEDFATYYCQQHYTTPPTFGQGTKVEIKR
Regarding B16, the Kd stood at 30 nM and the “log(KD (M))” value is -7.52 log(M).

B17: Trastuzumab HCDR3 variant ASVDLGGFYDFRY (Fab, V domains shown)
VH: B14 VH with S97A, Y98S, P99V, F101L, Y103G, Y104F, V105Y, Y106D, A108R
VL: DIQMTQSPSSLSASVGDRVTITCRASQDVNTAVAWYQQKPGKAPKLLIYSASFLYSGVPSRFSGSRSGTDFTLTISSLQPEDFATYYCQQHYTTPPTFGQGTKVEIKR
As for B17, the Kd was found to be 46.1 nM and the “log(KD (M))” value is -7.34 log(M).

B18: Trastuzumab HCDR3 variant ARYMRPAFYPFLY (Fab, V domains shown)
VH: B1 VH with L100M, T101R, D102P, D104F, F105Y, R106P, L107F, H108L
VL: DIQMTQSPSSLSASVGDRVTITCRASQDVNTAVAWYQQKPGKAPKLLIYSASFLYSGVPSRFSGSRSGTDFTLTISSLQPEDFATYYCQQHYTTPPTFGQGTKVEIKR
For the molecule B18, the Kd was 50.9 nM and the “log(KD (M))” value was -7.29 log(M).

B19: Trastuzumab HCDR3 variant ARYNPFDGFYFDV (Fab, V domains shown)
VH: B1 VH with L100N, T101P, D102F, A103D, D104G, R106Y, L107F, H108D, Y109V
VL: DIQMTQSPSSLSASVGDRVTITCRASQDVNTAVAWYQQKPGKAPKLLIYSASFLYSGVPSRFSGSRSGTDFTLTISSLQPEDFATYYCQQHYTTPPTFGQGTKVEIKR
B19: the Kd stood at 156 nM and the “log(KD (M))” value is -6.81 log(M).

B20: Trastuzumab HCDR3 variant ARYYYDFGYYFDY (Fab, V domains shown)
VH: B1 VH with L100Y, T101Y, A103F, D104G, F105Y, R106Y, L107F, H108D
VL: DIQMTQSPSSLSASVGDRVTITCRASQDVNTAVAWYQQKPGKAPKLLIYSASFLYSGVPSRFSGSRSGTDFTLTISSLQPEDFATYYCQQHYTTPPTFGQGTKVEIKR
Consider B20, for which the Kd turned out to be 42.8 nM and the “log(KD (M))” value was -7.37 log(M).

B21: Trastuzumab HCDR3 variant ASYGSGSYFSFPL (Fab, V domains shown)
VH: B1 VH with R98S, L100G, T101S, D102G, A103S, D104Y, R106S, L107F, H108P, Y109L
VL: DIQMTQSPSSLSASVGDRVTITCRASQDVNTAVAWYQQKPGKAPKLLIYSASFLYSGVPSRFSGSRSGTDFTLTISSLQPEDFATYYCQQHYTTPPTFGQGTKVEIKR
Turning to B21, the Kd was found to be 53.9 nM and the “log(KD (M))” value is -7.27 log(M).

B22: Trastuzumab HCDR3 variant TRWRWGYGYYFDF (Fab, V domains shown)
VH: B14 VH with S97T, Y98R, P99W, D100R, F101W, Y104G, V105Y, A108D, Y109F
VL: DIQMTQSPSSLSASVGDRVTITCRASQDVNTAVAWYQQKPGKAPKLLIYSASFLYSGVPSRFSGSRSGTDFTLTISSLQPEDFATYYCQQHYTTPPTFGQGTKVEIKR
Turning to B22, binding was put at a Kd of 78.1 nM and the “log(KD (M))” value was -7.11 log(M).

B23: Trastuzumab HCDR3 variant ARYVTANTYSYDP (Fab, V domains shown)
VH: B1 VH with L100V, D102A, A103N, D104T, F105Y, R106S, L107Y, H108D, Y109P
VL: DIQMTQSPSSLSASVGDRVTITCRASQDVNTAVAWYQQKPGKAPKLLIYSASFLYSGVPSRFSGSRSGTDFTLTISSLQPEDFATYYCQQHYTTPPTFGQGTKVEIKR
As to B23, the Kd is 83.6 nM and 83.5 nM; the “log(KD (M))” value was -7.08 log(M).

B24: Trastuzumab HCDR3 variant ATGSGGGGFSYGY (Fab, V domains shown)
VH: B2 VH with Y100S, Y102G, L103G, L104G, Y105F, D107Y, H108G, D109Y
VL: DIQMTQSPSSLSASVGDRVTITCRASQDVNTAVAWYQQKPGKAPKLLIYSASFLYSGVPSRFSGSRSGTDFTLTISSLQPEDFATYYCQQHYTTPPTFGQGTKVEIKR
As for B24, the Kd worked out at 182 nM and the “log(KD (M))” value is -6.74 log(M).

B25: Trastuzumab HCDR3 variant ARYPNYGFYMFDY (Fab, V domains shown)
VH: B1 VH with L100P, T101N, D102Y, A103G, D104F, F105Y, R106M, L107F, H108D
VL: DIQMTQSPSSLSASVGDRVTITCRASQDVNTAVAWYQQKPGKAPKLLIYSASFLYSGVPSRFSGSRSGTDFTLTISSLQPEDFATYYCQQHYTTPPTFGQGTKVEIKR
On to B25, for which the Kd worked out at 33.3 nM and the “log(KD (M))” value was -7.48 log(M).

B26: Trastuzumab HCDR3 variant ASSGRLDLYDFRL (Fab, V domains shown)
VH: B2 VH with T98S, G99S, Y100G, G101R, Y102L, L103D, S106D, D107F, H108R, D109L
VL: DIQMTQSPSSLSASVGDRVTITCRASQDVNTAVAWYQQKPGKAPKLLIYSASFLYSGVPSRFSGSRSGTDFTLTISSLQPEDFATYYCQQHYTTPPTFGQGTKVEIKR
Regarding B26, the Kd was 171 nM and the “log(KD (M))” value was -6.77 log(M).

B27: Trastuzumab HCDR3 variant ARYPSGYYYYFDY (Fab, V domains shown)
VH: B14 VH with S97A, Y98R, P99Y, D100P, F101S, V105Y, A108D
VL: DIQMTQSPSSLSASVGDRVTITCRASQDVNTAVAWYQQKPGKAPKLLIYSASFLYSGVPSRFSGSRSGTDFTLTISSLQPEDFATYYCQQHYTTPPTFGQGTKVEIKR
Regarding B27, the Kd amounted to 90.1 nM and the “log(KD (M))” value is -7.05 log(M).

B28: Trastuzumab HCDR3 variant ARDGHYFTYDY (Fab, V domains shown)
VH: EVQLVESGGGLVQPGGSLRLSCAASGFNIKDTYIHWVRQAPGKGLEWVARIYPTNGYTRYADSVKGRFTISADTSKNTAYLQMNSLRAEDTAVYYCARDGHYFTYDYWGQGTLVTVSS
VL: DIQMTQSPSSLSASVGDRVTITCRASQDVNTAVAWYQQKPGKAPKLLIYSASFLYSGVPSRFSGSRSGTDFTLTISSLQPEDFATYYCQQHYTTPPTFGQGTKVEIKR
As to B28, binding was put at a Kd of 45.1 nM and the “log(KD (M))” value was -7.35 log(M).

B29: Trastuzumab HCDR3 variant AAWYSTYYFDY (Fab, V domains shown)
VH: B28 VH with R98A, D99W, G100Y, H101S, Y102T, F103Y, T104Y, Y105F
VL: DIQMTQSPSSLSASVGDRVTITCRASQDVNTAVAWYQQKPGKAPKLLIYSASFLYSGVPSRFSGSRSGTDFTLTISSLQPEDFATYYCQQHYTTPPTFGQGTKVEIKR
Regarding B29, the Kd stood at 49.4 nM and the “log(KD (M))” value was -7.31 log(M).

B30: Trastuzumab HCDR3 variant AINLRGYWMDN (Fab, V domains shown)
VH: B28 VH with R98I, D99N, G100L, H101R, Y102G, F103Y, T104W, Y105M, Y107N
VL: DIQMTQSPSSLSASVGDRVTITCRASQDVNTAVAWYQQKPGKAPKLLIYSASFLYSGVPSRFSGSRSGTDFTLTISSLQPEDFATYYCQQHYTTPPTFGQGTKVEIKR
B30: the Kd is 41.5 nM and the “log(KD (M))” value is -7.38 log(M).

B31: Trastuzumab HCDR3 variant AADGYRGTYSF (Fab, V domains shown)
VH: B28 VH with R98A, H101Y, Y102R, F103G, D106S, Y107F
VL: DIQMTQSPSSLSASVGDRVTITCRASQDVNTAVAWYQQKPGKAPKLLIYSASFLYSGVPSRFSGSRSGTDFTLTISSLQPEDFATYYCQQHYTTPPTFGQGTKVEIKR
Turning to B31, the Kd was 79.2 nM and the “log(KD (M))” value is -7.1 log(M).

B32: Trastuzumab HCDR3 variant AFPWAGHYMER (Fab, V domains shown)
VH: B28 VH with R98F, D99P, G100W, H101A, Y102G, F103H, T104Y, Y105M, D106E, Y107R
VL: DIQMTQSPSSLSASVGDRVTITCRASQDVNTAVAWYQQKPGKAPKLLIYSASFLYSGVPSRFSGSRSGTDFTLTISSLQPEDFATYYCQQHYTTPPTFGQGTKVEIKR
Take B32: the Kd was found to be 95 nM and the “log(KD (M))” value is -7.02 log(M).

Values taken from patent publication US20250218531A1 (ABSCI, published 2025).
